Measurements taken from patent US20250289861A1 (IMMUNOFORGE, published 2025).

B1: PF1802_M021 (GLP1-Fc-mut.IGF1) (Fc fusion)
chain: HGEGTFTSDVSSYLEEQAAKEFIAWLVKGGGGSAPAPGGGGSDKTHTCPPCPAPELLGGPSVFLFPPKPKDTLMISRTPEVTCVVVDVSHEDPEVKFNWYVDGVEVHNAKTKPREEQYASTYRVVSVLTVEHMDWLNGKEYKCKVSNKALPAPIEKTISKAKGQPREPQVYTLPPSREEMTKNQVSLTCLVKGFYPSDIAVEWESNGQPENNYKTTPPVLDSDGSFFLYSKLTVDKSRWQQGNVFSCSVLHEALHNHYTQKSLSLSPGKGGGGSGGGGSGGGGSGGGGSGAHSGPATLCGAELVDALQFVCGDRGFYFNKPTGYGSSSRRAPQTGIVDECCARSCDLRRLEMYCAPLKPTKST
notes: M008 with a half-life-increasing Fc: N297A, L309E, Q311M, M428L
B2: PF1802_M022 (GLP1-Fc-mut.IGF1) (Fc fusion)
chain: HGEGTFTSDVSSYLEEQAAKEFIAWLVKGGGGSAPAPGGGGSDKTHTCPPCPAPELLGGPSVFLFPPKPKDTLMISRTPEVTCVVVDVSHEDPEVKFNWYVDGVEVHNAKTKPREEQYASTYRVVSVLTVEHWDWLNGKEYKCKVSNKALPAPIEKTISKAKGQPREPQVYTLPPSREEMTKNQVSLTCLVKGFYPSDIAVEWESNGQPENNYKTTPPVLDSDGSFFLYSKLTVDKSRWQQGNVFSCSVLHEALHNHYTQKSLSLSPGKGGGGSGGGGSGGGGSGGGGSGAHSGPATLCGAELVDALQFVCGDRGFYFNKPTGYGSSSRRAPQTGIVDECCARSCDLRRLEMYCAPLKPTKST
notes: M008 with a half-life-increasing Fc: N297A, L309E, Q311W, M428L
B3: PF1802_M020 (GLP1-Fc-mut.IGF1) (Fc fusion)
chain: HGEGTFTSDVSSYLEEQAAKEFIAWLVKGGGGSAPAPGGGGSDKTHTCPPCPAPELLGGPSVFLFPPKPKDTLMISRTPEVTCVVVDVSHEDPEVKFNWYVDGVEVHNAKTKPREEQYASTYRVVSVLTVYHMDWLNGKEYKCKVSNKALPAPIEKTISKAKGQPREPQVYTLPPSREEMTKNQVSLTCLVKGFYPSDIAVEWESNGQPENNYKTTPPVLDSDGSFFLYSKLTVDKSRWQQGNVFSCSVLHEALHNHYTQKSLSLSPGKGGGGSGGGGSGGGGSGGGGSGAHSGPATLCGAELVDALQFVCGDRGFYFNKPTGYGSSSRRAPQTGIVDECCARSCDLRRLEMYCAPLKPTKST
notes: M008 with a half-life-increasing Fc: N297A, L309Y, Q311M, M428L

Biological target: T1, Human FcRn-GST protein (human, UniProt P55899 24-297; P61769 21-119, limits assumed)
T1 construct: not shown: GST tag
Assay: ELISA at pH 6.0: fusion protein coated on the plate, Human FcRn-GST titrated (x axis, ug/ml), anti-GST Ab-HRP, A450
Protocol: To investigate the binding affinity of the PF1802_M020, M021, and M022 substances, obtained by introducing three types of blood half-life-increasing Fc to the PF1802-M008 candidate substance, to human FcRn, ELISA was performed, and to investigate the difference in binding affinity depending on pH, two situations at pH 6.0 and pH 7.4 were prepared, respectively. Specifically, each of the PF1802_M020, M021, and M022 substances was coated at 4 μg/mL on a 96 well immunoplate, and reacted with PBS (pH 6.0 and 7.4) containing 4% skim milk at room temperature for 1 hour to block non-specific binding. Thereafter, the Human FcRn-GST protein was diluted 4-fold from a maximum concentration of 5 μg/mL to 0.0003 μg/mL using PBS (pH 6.0, 7.4) containing 1% skim milk, and then dispensed into each well, followed by incubation at room temperature for 1 hour.

T1 sequence (P55899 24-297 limits assumed, chain 1 of 2): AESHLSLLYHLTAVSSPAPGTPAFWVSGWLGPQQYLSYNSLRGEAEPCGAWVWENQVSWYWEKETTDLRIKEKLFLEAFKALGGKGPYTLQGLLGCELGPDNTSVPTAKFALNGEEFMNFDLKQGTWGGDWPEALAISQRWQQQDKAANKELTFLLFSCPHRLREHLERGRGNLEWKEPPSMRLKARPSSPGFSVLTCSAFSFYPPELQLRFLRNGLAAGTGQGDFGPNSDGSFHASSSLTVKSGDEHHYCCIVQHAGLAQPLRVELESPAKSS
T1 sequence (P61769 21-119 limits assumed, chain 2 of 2): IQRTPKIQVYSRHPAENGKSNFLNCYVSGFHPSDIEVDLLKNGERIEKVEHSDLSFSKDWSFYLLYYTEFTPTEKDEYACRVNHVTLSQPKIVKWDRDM

Row | Binder | EC50 (read off the curve) [µg/mL]
1 | B1 | ~0.03
2 | B2 | ~0.03
3 | B3 | ~0.04
